Data as given in paper PMC4114559, “Pigment Dispersing Factor Regulates Ecdysone Biosynthesis via Bombyx Neuropeptide G Protein Coupled Receptor-B2 in the Prothoracic Glands of Bombyx mori” (PLoS ONE, 2014).

Assays:
[1] = system: ERK; experiment: p-ERK level in cultured PGs (Western blot); assay type: cell-based, Bombyx mori; details: 15 min, immunoblotting
Protocol: (§1) Dissected PGs were rinsed with Grace's insect culture medium (Gibco) and pre-cultured individually in 100 µl medium in 96-well plates (BD Falcon) at 25°C for 30 min. To evaluate the effect of extracellular Ca^2+ on ecdysone biosynthesis, lepidopteran saline and lepidopteran saline using NaCl as a replacement for CaCl2 were used. For the pharmacological analysis, the PG was pre-treated with the inhibitor for 15 min during the pre-culture period. Following this treatment, the PG was cultured in the desired conditions for the desired period (Ecdysone assay: 3 hours; cAMP assay: 30 min; and Protein phosphorylation assay: 15 min). […]
(§2) Dissected PGs were pre-cultured in Grace's culture medium for 30 min, then cultured with or without PDF or PTTH for 15 min. The cultured PGs were sonicated in 50 mM Tris-HCl (pH 6.8) with protease inhibitor cocktail (Complete, Roche) and phosphatase inhibitor cocktail (Wako), lysed in 1x SDS sample buffer excluding 2-mercaptoethanol (2ME) and bromophenol blue (BPB), and the protein concentration was measured using the BCA protein assay kit (Pierce). […]
(§3) Figure 4 Signaling pathways involved in PDF-induced ecdysone biosynthesis. […] The transcript levels of nvd, nm-g, spo, phm, dib and sad were quantified with Q-PCR. […] Statistically significant differences were evaluated by Student's t-test (***P<0.001, **P<0.01). […]

[2] = system: 4E-BP; experiment: p-4E-BP level in cultured PGs (Western blot); assay type: cell-based, Bombyx mori; details: cultured PGs, 15 min; immunoblotting
Protocol: as §1, §2, §3

[3] = system: PGs of B. mori; experiment: Intracellular cAMP level in cultured PGs; assay type: cell-based, Bombyx mori; details: Ca2+-free lepidopteran saline, n = 4–8
Protocol: as §1, with “min). Actinomycin D, H-89 and cycloheximide (CHX) were purchased from Sigma; Rapamycin was purchased from Santa Cruz Biotechnology; and LY294002 was purchased from Merck. H-89 was dissolved in water. The other inhibitors were dissolved in DMSO.” for “min).”
HEK293 cells were transfected with an empty mammalian expression vector (pME18S) or the full-length BNGR-B2 ORF inserted into the pME18S vector (BNGR-B2/pME18S) using Lipofectamine LTX with PLUS reagent (Invitrogen) according to the manufacturer's instructions. […] The luminescence was measured with a Wallac ARVO SX 1420 Multilabel Counter (PerkinElmer).
Figure 3 Prothoracicotropic activities of PDF in vitro. […] Statistically significant differences were evaluated by Student's t-test (***P<0.001, **P<0.01, *P<0.05).

[4] = system: nvd, nm-g, spo, phm, dib and sad; details: ref [8]; cited from earlier work
Source text: Ecdysone is the key regulator of insect growth and development. Ecdysone is synthesized in the PGs and the biosynthesis is intricately regulated by several neuropeptides. To date, four prothoracicotropic peptides (PTTH, FXPRL-amides, insulin and orcokinins) and three prothoracicostatic peptides (PTSP, Bommo-myosuppressin and Bommo-FMRF-amides) have been identified in Bombyx mori. The participation of four cytochrome P450 (CYP) enzymes (CYP307A1, Spook (Spo); CYP306A1, Phantom (Phm); CYP302A1, Disembodied (Dib); CYP315A1, Shadow (Sad)); an oxygenase-like protein, Neverland (Nvd); and a sh ... || Because PDF increased the intracellular cAMP level in PGs, the involvement of PKA in the PDF signaling pathway was expected. […] In mammals, most of the CYP enzymes involved in steroid hormone biosynthesis are transcriptionally regulated. In PTTH- and dbcAMP-induced ecdysone biosynthesis, ecdysone biosynthesi ...

B1: PTTH: prothoracicotropic hormone, humoral pathway-mediated tropic hormone (protein, UniProt P17219 116-224, looked up)
Prothoracicotropic hormone: GNIQVENQAIPDPPCTCKYKKEIEDLGENSVPRFIETRNCNKTQQPTCRPPYICKESLYSITILKRRETKSQESLEIPNELKYRWVAESHPVSVACLCTRDYQLRYNNN
modifications: Prothoracicotropic hormone
level of p-ERK [1]: upregulated
level of p-4E-BP [2]: upregulated by both PDF and PTTH
effect of Ca2+ depletion on induced upregulation of intracellular cAMP levels [3]: suppressed PTTH-induced upregulation of intracellular cAMP levels
transcript level of ecdysone biosynthetic enzymes (literature) [4]: upregulated the transcript level of some ecdysone biosynthetic enzymes
transcript levels of spo, dib and phm (literature) [4]: upregulated by PTTH
